Laboratory results taken from patent US20150111836A1, “CELLULAR APOBEC3 PROTEINS AND MODULATORS THEREOF FOR REGULATING DNA REPAIR PROCESSES AND TREATING PROLIFERATIVE DISEASES” (priority 2012, published 2015).
Where a SMILES comes first, the peptide text is derived from it. The star is where a group is joined. Cbz = O=C(OCc1ccccc1)*; CH2F = FC*

What was measured:
A3G [1] = experiment: shRNA-mediated knockdown of A3G expression in H9 cells; assay type: cell-based, human; conditions: Western blot, FIG. 8F
Experimental: (§1) For short hairpin (sh) RNA expression, the following puromycin resistance-encoding vectors were used: A3G-specific pLKO.1.shA3G (TRCN0000052188, clone NM_021822.1-398s1 c1; Sigma-Aldrich), having the nucleic acid sequence 5′-CCGG-[…]-CTCGAG-[…]-TTTTTG-3′, as denoted by SEQ ID NO. 92, and the unrelated control cyprinid herpes virus 3 (CyHV3)-specific pLKO.1.shCtr1. […]. Culture supernatants were collected 48 h post transfection, centrifuged for 10 min at 4,000 rpm to remove cell debris and then for 1 h at 35,000 rpm using a swing SW-41 rotor (Beckman). H9 cells were transduced with the concentrated vectors by spinoculation for 1 h at 1,000 rpm and selected with puromycin (1 μg ml^−1) for 3-10 days post transduction.
Transfected or infected cells were harvested, washed once in PBS, re-suspended in SDS-gel loading buffer and boiled for 10 min. Samples of 5×10^4 cells were analyzed by SDS-12% polyacrylamide gel electrophoresis (SDS-PAGE), followed by transfer of the proteins to polyvinylidene fluoride (PVDF) membrane. HIV-1 proteins were detected by using rabbit anti-Vif and monoclonal anti-Ca-p24 antibodies. A3G protein was identified by rabbit polyclonal anti-A3G.

H9 cells [2] = experiment: γ-H2AX / RPA foci after IR in A3G knockdown H9 cells; assay type: cell-based, human
Experimental: as §1
(§2) Cells were irradiated by exposure to a ^60Co source producing 1 Gy sec^−1 γ-radiation, or mock-irradiated. Following incubation at 37° C., cells were fixed, attached to glass slides by cytospin, permeabilized with detergent and blocked with 10% normal goat serum. Cells were then incubated with A3G-specific rabbit polyclonal antibody, γ-H2AX-specific monoclonal antibody, or RPA32-specific monoclonal antibody, followed by incubation with goat anti-rabbit Cy-5-conjugated antibody, goat anti-mouse Cy-2-conjugated antibody and DAPI. Slides were mounted and examined by Zeiss LSM 710 confocal microscope. Data were collected sequentially using a ×63 objective with 7-fold averaging at a resolution of […], Z-sections were obtained using an optical slice of less than 1 μm. Data were analyzed with the Zen 2009.

H9 cells [3] = experiment: Cell cycle analysis following IR; assay type: cell-based, human; conditions: H9-shA3G cells, 4 Gy, 20 hours, FIG. 8J
Experimental: PBMC, H9 or puromycin-resistant H9-shRNA cells were irradiated (4 Gy) or mock-irradiated. Following 20 h incubation at 37° C., cells were fixed with methanol for 1 h at −20° C., washed with phosphate buffered saline (PBS), treated with RNase A (50 μg ml ^−1) and stained with PI (5 μg ml^−1). The total cellular DNA content was determined by flow cytometry using FACScan. Cell cycle data were analyzed by the CellQuest Pro software and include 10,000 events gated on singlet cells.

A3G [4] = target: T1, A3G (Homo sapiens, UniProt Q9HC16); assay type: biochemical; conditions: for inhibition of A3G deaminase activity: peptide at 1 μM, FIG. 15B; for inhibition of A3G mediated deamination by A3G-derived peptides: 1-100 μM, FIG. 19B
T1 construct: Myc (C); His6 (C); made in house; host or cells: 293T cells (human embryonic kidney), transfected with pcDNA3.1-A3GMyc-His6, Ni-NTA purified
T1 sequence (Q9HC16 whole entry): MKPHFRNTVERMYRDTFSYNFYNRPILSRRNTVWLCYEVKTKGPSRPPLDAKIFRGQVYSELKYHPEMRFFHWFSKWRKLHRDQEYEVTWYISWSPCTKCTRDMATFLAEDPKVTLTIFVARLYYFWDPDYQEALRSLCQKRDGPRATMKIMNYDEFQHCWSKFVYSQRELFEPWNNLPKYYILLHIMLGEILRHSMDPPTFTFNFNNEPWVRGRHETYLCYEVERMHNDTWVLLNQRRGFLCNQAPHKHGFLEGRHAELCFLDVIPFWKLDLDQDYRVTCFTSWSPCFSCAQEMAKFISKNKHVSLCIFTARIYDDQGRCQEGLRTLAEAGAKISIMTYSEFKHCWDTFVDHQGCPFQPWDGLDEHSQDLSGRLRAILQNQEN
Experimental: Deaminase activity of purified enzyme and virion-associated A3G protein was examined as previously described. Briefly, A3G deamination reactions were performed in a total volume of 10 μl in 25 mM Tris, pH 7.0, and 0.01-1 fmol single-stranded (ss) deoxyoligonucleotide substrate at 37° C. The reaction was terminated by heating to 95° C. for 5 min. One μl of the reaction mixture was used for PCR amplification performed in 20 μl buffer S, using the following program: 1 cycle at 95° C. for 3 min, followed by 30 cycles of annealing at 61° C. for 30 s and denaturing at 94° C. for 30 s. Aliquots of the PCR products (10 μl) were incubated with Eco147I restriction enzyme for 1 h at 37° C. Completion of the restriction reaction was verified by using positive-control substrate containing CCU instead of CCC. Restriction-reaction products were loaded onto 14% gels and separated by PAGE. Gels were stained with SYBR gold nucleic acid stain diluted 1:10,000 in 0.5× Tris-Borate-EDTA buffer (TBE, pH 7.8), visualized by UV light (312 nm), captured by an Olympus C-5050 charge-coupled device (CCD) camera and analyzed by optical density (OD) scan using the TINA2.0 densitometry software. Assessment of A3G entrapped in virions was carried out with concentrated viruses stocks of 3-5 μg of p24/μl) suspended in PBS containing Triton X-100 at final concentration of 0.1% (vv) and 50 μg/ml RNase A (Sigma-Aldrich). Deamination reactions were incubated for 1 h at 37° C.
A panel of 46 HIV-1 Vif-derived 15-mer peptides (obtained through the NIH AIDS Research and Reference Reagent Program) were screened for inhibition of purified A3G-His6 catalytic activity in a standard cytidine deamination assay. […] A fluorescein-conjugated peptide (kindly provided by Dr. Assaf Friedler) was used to assess the peptide uptake by H9 cells.

H9 cells [5] = experiment: DSB repair (γ-H2AX staining) in irradiated H9 cells pre-incubated with Vif peptides; assay type: cell-based, human; conditions: 2 h pre-incubation with 100 μM peptide, 4 Gy IR, stained after 8 h
Experimental: as §2
A panel of 46 HIV-1 Vif-derived 15-mer peptides (obtained through the NIH AIDS Research and Reference Reagent Program) were screened for inhibition of purified A3G-His6 catalytic activity in a standard cytidine deamination assay. The inhibitory peptide Vif25-39 corresponds to amino acids 25-39 in HIV-1 HXBII Vif. A fluorescein-conjugated peptide (kindly provided by Dr. Assaf Friedler) was used to assess the peptide uptake by H9 cells. […]

## 5′-CCGG-GCCAGGTGTATTCCGAACTTA-CTCGAG-TAAGTTCGGAATACACCTGGC-TTTTTG-3′ (DNA CCGGGCCAGGTGTATTCCGAACTTACTCGAGTAAGTTCGGAATACACCTGGCTTTTTG; expressed or natural sequence) [shA3G, A3G-specific shRNA vector TRCN0000052188]
A3G [1]
  reduction of A3G expression compared to H9-shCtr1 cells: 70-80%
H9 cells [2]; H9-shA3G cells, 4 Gy, 2 h, FIG. 10A
  RPA recruitment to damage-induced foci following IR: did not form such foci
H9 cells [2]; H9-shA3G cells, 4 Gy, up to 8 hours, FIG. 8G
  γ-H2AX foci in the hours following IR: did not decrease
H9 cells [3]
  G2M arrest following IR: did not undergo G2M arrest

## COC(=O)C[C@H](NC(=O)[C@H](C)NC(=O)[C@@H](NC(=O)OCc1ccccc1)C(C)C)C(=O)CF [z-VAD-fmk, reference compound] (Cbz-Val-Ala-Asp(OMe)-CH2F)
H9 cells [2]; 20 μM, 1 hour pre-incubation, γ-H2AX 6 hours after IR, FIG. 8H
  DSB incidence in the presence of caspase inhibitor: comparable with cells treated with mock

## DCFSESAIRNAILGH (Viral - Vif peptide) [Vif113-127]
A3G [4]
  inhibition of A3G deaminase activity: inhibited

## DLADQLIHLYYFDCF (Viral - Vif peptide) [Vif101-115]
A3G [4]
  inhibition of A3G deaminase activity: inhibited

## GWFYRHHYESTHPRI (Viral - Vif peptide) [Vif37-51]
A3G [4]
  inhibition of A3G deaminase activity: inhibited

## IHLYYFDCF (Viral - Vif peptide) [SEQ ID NO. 71]
A3G [4]; 0.001 to 10 μM, FIG. 19A
  inhibition of A3G mediated deamination by short Vif- and A3F-derived peptides: distinct inhibitory pattern

## IVWQVDRMRIRTWKS [Vif9-23]
A3G [4]
  inhibition of A3G deaminase activity: inhibited

## RMHNDTWVLLNQRRG (listed as Homo sapiens) [SEQ ID NO. 84]
A3G [4]
  inhibition of A3G mediated deamination by A3G-derived peptides: marked inhibitory effect

## WRKKRYSTQVDPDLA (Viral - Vif peptide) [Vif89-103, control peptide]
A3G [4]; peptide at 100 μM
  inhibition of A3G-mediated deamination: did not inhibit
H9 cells [5]
  cells containing DSBs: < 8%

## WVRGRHETYLCYEVE (listed as Homo sapiens) [SEQ ID NO. 83]
A3G [4]
  inhibition of A3G mediated deamination by A3G-derived peptides: marked inhibitory effect
